The assay concerns the target IL-2 receptor (IL-2R) on primary pan T-cells from healthy donors (human) (UniProt P01589). The assay is described as follows: cell-based or functional assay.

IL-2 receptor (IL-2R) on primary pan T-cells from healthy donors (human), sequence (P01589 22-272, chain 1 of 3): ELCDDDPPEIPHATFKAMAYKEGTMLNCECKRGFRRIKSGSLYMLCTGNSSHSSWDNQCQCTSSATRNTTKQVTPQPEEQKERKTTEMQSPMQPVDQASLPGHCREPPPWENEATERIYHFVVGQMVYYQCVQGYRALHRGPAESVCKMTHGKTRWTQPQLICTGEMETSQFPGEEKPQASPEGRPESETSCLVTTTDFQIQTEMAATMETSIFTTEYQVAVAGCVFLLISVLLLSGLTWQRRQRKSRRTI
IL-2 receptor (IL-2R) on primary pan T-cells from healthy donors (human), sequence (P14784 27-551, chain 2 of 3, further chain): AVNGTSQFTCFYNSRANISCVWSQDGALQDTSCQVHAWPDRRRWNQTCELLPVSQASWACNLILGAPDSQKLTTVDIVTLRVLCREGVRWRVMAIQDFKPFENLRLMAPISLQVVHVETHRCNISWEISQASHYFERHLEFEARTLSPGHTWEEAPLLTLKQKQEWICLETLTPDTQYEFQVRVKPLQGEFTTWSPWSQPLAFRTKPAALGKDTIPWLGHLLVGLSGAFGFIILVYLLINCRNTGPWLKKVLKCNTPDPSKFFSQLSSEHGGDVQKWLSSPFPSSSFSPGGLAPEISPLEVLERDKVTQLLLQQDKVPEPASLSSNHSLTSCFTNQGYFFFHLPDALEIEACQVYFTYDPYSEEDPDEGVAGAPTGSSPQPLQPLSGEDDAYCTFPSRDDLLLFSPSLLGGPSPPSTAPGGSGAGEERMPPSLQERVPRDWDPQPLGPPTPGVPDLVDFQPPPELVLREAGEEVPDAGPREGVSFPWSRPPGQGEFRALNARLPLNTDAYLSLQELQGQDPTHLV
IL-2 receptor (IL-2R) on primary pan T-cells from healthy donors (human), sequence (P31785 23-369, chain 3 of 3, further chain): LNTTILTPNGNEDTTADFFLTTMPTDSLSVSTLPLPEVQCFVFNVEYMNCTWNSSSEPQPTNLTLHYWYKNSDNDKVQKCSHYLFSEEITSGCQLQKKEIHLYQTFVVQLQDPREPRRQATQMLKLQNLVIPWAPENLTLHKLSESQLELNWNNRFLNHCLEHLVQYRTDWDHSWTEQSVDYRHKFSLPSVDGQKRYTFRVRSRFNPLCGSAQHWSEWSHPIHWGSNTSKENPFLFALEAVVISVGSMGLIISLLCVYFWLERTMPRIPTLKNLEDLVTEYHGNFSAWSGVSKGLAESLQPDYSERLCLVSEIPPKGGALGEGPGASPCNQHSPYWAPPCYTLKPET

The substance “Aldesleukin (from UniProt P60568 22-153) (ligand)” came in with a CD8 EC50 (nM), STAT5 phosphorylation of 9.07 nM; a CD8 naïve EC50 (nM), STAT5 phosphorylation of 477 nM; a Treg EC50 (nM), STAT5 phosphorylation of 0.019 nM.

Source of the values: US20230183331A1.
